# In publication PMC6875872 (The Journal of Physical Chemistry. B, 2019):
# Target: the molecule itself
# Assay: SEC + other: DLS + other: TEM
protein,measurement,value
"cowpea chlorotic mottle virus (CCMV) capsid protein (natural protein, UniProt P03601 1-190, looked up) MSTVGTGKLTRAQRRAAARKNKRNTRVVQPVIVEPIASGQGKAIKAWTGYSVSKWTASCAAAEAKVTSAITISLPNELSSERNKQLKVGRVLLWLGLLPSVSGTVKSCVTETQTTAAASFQVALAVADNSKDVVAAMYPEAFKGITLEQLTADLTIYLYSSAALTEGDVIVHLEVEHVRPTFDDSFTPVY",stoichiometry N,60
